Laboratory results reported in patent US20240254219A1 (University of California, published 2024).

Experiments:
[1] = molecular target: T1, LRP6 double mutant (K662A/K684A) on HEK293 cells (human, UniProt O75581 20-1613); assay: flow cytometry on transfected HEK293 cells
T1 construct: whole, on cells; Made by site-directed mutagenesis of the LRP6 construct in pCMV-Entry and transfected into HEK293 cells
Protocol: FIG. 1F is a graph showing fine epitope mapping by alanine scanning of LRP6 and the effect of the alanine substitutions on binding of the 66 antibody. LRP6 single mutants and the double mutant (K662A/K684A) were separately transfected into HEK293 cells. An anti-LRP6 scFv-Fc fusion that binds to the LRP6-P1 domain was used as a control to confirm cell surface expression of LRP6. Binding of the 66 antibody was determined by flow cytometry, and median fluorescence intensity (MFI) values were normalized against MFI of the P1-binding scFv-Fc.
To map the binding site further, the binding of the 66 antibody to LRP6 was modeled using a homology modeling-predicted structure for the 66 Fv and two known crystal structures of LRP6 (3S8Z and 4A0P: FIGS. 8A and 8B, respectively). Several potential 66 contact sites were identified on LRP6. Alanine scan mutagenesis was performed at those sites. Alanine mutants of LRP6 ectodomain were constructed using QuikChange Site-Directed Mutagenesis Kit (Agilent Technologies) according to the manufacturer's protocol. Binding of the 66 IgG to these LRP6 mutants was analyzed by flow cytometry. K662A and K684A single mutations caused a significant loss of 66 binding (FIG. 1F).

[2] = molecular target: T2, human LRP6 (low density lipoprotein receptor-related protein 6), full length on HEK293 cells (human, UniProt O75581 20-1613); assay: cell-based or functional assay
[3] = molecular target: T3, recombinant mouse LRP6 extracellular domain (mouse, UniProt O88572 20-1370); assay: ELISA on recombinant mouse LRP6 extracellular domain
T3 construct: extracellular domain; also called mouse LRP6 ectodomain
T3 sequence (looked up): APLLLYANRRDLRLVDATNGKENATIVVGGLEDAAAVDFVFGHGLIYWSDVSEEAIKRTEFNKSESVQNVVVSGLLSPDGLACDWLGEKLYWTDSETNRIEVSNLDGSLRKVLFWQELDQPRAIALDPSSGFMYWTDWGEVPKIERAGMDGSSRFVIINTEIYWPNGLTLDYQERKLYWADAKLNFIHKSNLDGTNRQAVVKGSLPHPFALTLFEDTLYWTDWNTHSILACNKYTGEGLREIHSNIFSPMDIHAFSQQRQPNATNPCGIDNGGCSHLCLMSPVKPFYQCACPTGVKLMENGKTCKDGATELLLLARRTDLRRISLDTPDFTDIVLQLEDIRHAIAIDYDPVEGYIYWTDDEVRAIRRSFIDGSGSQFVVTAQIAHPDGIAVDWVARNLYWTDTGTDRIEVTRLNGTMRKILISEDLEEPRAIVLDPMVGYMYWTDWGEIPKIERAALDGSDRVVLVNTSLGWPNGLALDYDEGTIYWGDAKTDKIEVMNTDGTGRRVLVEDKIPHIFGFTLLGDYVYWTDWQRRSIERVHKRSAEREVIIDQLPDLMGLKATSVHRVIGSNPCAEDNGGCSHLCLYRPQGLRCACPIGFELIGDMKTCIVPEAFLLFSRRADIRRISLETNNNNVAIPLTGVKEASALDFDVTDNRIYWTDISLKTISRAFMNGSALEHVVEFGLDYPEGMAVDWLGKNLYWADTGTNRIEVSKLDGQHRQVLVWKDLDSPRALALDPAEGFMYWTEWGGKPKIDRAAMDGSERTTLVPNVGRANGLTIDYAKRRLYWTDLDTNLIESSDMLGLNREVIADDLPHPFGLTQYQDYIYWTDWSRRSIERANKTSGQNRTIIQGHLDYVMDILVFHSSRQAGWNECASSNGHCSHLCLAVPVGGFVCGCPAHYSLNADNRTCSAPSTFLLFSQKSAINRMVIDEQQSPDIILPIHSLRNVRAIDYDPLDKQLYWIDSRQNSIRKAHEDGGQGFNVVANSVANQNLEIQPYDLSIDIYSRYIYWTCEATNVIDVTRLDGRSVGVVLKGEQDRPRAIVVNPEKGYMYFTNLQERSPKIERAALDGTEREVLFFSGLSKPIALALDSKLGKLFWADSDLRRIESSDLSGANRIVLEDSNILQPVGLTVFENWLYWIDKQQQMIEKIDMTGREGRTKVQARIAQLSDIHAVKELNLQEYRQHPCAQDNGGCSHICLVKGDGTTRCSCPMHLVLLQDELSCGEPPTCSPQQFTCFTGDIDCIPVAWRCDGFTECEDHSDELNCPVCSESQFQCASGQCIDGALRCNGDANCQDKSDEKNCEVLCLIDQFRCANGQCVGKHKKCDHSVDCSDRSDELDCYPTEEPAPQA

[4] = molecular target: T2, human LRP6 (low density lipoprotein …); assay: flow cytometry titration of 66 IgG on HEK293 cells
Protocol: (§1) HEK293 cells were transfected with LRP6 expression plasmid and incubated with 66 or E34N19 scFv-phage for 1 hour. E34N19 was identified previously as a Wnt antagonist binding to the P3E3P4E4 domain (Lee et al., 2018). The E34N19 IgG was simultaneously added as a competitor. Bound phages were detected by sequential incubation of mouse anti-fd IgG and PE-labeled anti-mouse IgG. FIG. 7A is a graph showing the dissociation curve of the 66 antibody. HEK293 cells were incubated with varying concentrations of 66 IgG, and the binding was analyzed by flow cytometry. […] As a positive control, the E34N19E IgG competes with the E34N19E scFv-phage.
(§2) The apparent KD of antibodies was analyzed by FACS as described (Lee et al., 2018). Briefly, cells were trypsinized, washed, and resuspended in FACS buffer (PBS, 1% FBS). Antibodies serially diluted in FACS buffer were incubated with target cells (3×10⁵ cells/tube) overnight at 4° C. Cells were washed, incubated with Alexa Fluor® 647-labeled goat anti-human IgG (Jackson ImmunoResearch). 1 hour post incubation, cells were washed in PBS and analyzed using a BD Accuri C6 flow cytometer (BD Biosciences). Median Fluorescence Intensity (MFI) values were analyzed by curve fitting (GraphPad) to determine the affinity.

[5] = molecular target: T2, human LRP6 (low density lipoprotein …); assay: flow cytometry on HEK293 cells; apparent KD by curve fitting of MFI
Protocol: as §1, §2

B1: 66 IgG (Wnt-agonist human monoclonal antibody 66) (antibody, V domains shown)
VH: QVQLLQSGGGLVQPGGSLRLSCAASGFTFSTYAMSWVRQAPGKGLEWVSTIGPSGSSTYYAYADSVKGRFTISRDNYKNMLYLQMNSLRAEDTAVYYCAKEGPNSGYFDFDYWGQGTLVTVSS
VL: EIVLTQSPSSLSASVGDRVTITCRASQSISTYLNWYQQKPGKAPKVLIYAASSLQSGVPSRISGSGSGTDFTLTISSLQPEDFATYYCQQSYSIPLTFGGGTKLEIK
notes: also called 66 antibody; agonist 66 IgG
binding result [1]: no binding
EC50, STF reporter on HEK293 cells without Wnt ligands [2]: 13.4 nM
EC50, Wnt1-mediated beta-catenin signaling (STF reporter) with RSPO2 (5 nM) [2]: 1.8 nM
EC50, Wnt3a-mediated beta-catenin signaling (STF reporter) with RSPO2 (5 nM) [2]: 4.8 nM
binding result [3]: binds
EC50 (read off the curve) [4]: ~5 nM
Kd [5]: ~5 nM
